# Residue numbers refer to the chain shown, from its start. In names and notes the source's numbering stands. Several values for one entry are separate records, joined by “and”; a condition that tells them apart may be missing. Equal entries are not always repeated. Where two headings read alike, the source gives them in different places.
# B1: Ab-L5-FGF21ΔH-K59: SEQ ID NO:19 combined with L5 at K59 and conjugated with h38C2 (conjugate, listed as Homo sapiens)
# chain: PIPDSSPLLQFGGQVRQRYLYTDDAQQTEAHLEIREDGTVGGAADQSPESLLQLRALKPGVIQILGVRTSRFLCQRPDGALYGSLHFDPEACSFRELLLEDGYNVYQSEAHGLPLHLPGNRSPHRDPAPRGPARFLPLPGLPPALPEPPGILAPQPPDVGSSDPLSMVGPSQGRSPSYAS
# modifications: L5 linker at K59 conjugated to h38C2 antibody
# B2: FGF21ΔH-L86C: FGF21 cysteine mutant, SEQ ID NO:14 (protein, listed as Homo sapiens)
# chain: B1 chain with R55K, R68K, L85C, R121K
# B3: FGF21ΔH-K56R-K59-K69R-K122R: FGF21 lysine mutant, SEQ ID NO:19 (protein, listed as Homo sapiens)
# chain: B1 chain
# B4: Ab-L5-FGF21ΔH-Knull-P2: SEQ ID NO:22 combined at the N' terminus of P2 with L5 and conjugated with h38C2 (conjugate, listed as Homo sapiens)
# chain: B1 chain with K58R
# modifications: L5 linker at N-terminus, conjugated to h38C2 antibody
# B5: FGF21ΔH-Knull-P2: FGF21 lysine-null mutant, SEQ ID NO:22 (protein, listed as Homo sapiens)
# chain: B1 chain with K58R
# B6: FGF21ΔH-H125C: FGF21 cysteine mutant, SEQ ID NO:7 (protein, listed as Homo sapiens)
# chain: B1 chain with R55K, R68K, R121K, H124C
# B7: FGF21ΔH-K56-K59R-K69R-K122: FGF21 lysine mutant, SEQ ID NO:21 (protein, listed as Homo sapiens)
# chain: B1 chain with K58R, R121K
# B8: FGF21ΔH-A129C: FGF21 cysteine mutant, SEQ ID NO:10 (protein, listed as Homo sapiens)
# chain: B1 chain with R55K, R68K, R121K, A128C
# B9: FGF21ΔH-K56-K59R-K69R-K122R: FGF21 lysine mutant, SEQ ID NO:18 (protein, listed as Homo sapiens)
# chain: B1 chain with R55K, K58R
# B10: Ab-L5-FGF21ΔH-Knull-S181K: SEQ ID NO:24 combined with L5 at S181K and conjugated with h38C2 (conjugate, listed as Homo sapiens)
# chain: B1 chain with K58R, S180K
# modifications: L5 linker at K181 conjugated to h38C2 antibody
# B11: FGF21ΔH-Knull-S181K: FGF21 lysine-null mutant with S181K, SEQ ID NO:24 (protein, listed as Homo sapiens)
# chain: B1 chain with K58R, S180K
# B12: FGF21ΔH-K56R-K59R-K69-K122R: FGF21 lysine mutant, SEQ ID NO:20 (protein, listed as Homo sapiens)
# chain: B1 chain with K58R, R68K
# B13: Ab-L5-FGF21ΔH-Knull-H1K: SEQ ID NO:23 combined with L5 at H1K and conjugated with h38C2 (conjugate, listed as Homo sapiens)
# chain: KPIPDSSPLLQFGGQVRQRYLYTDDAQQTEAHLEIREDGTVGGAADQSPESLLQLRALRPGVIQILGVRTSRFLCQRPDGALYGSLHFDPEACSFRELLLEDGYNVYQSEAHGLPLHLPGNRSPHRDPAPRGPARFLPLPGLPPALPEPPGILAPQPPDVGSSDPLSMVGPSQGRSPSYAS
# modifications: L5 linker at K1 conjugated to h38C2 antibody
# B14: FGF21ΔH-Knull-H1K: FGF21 lysine-null mutant with H1K, SEQ ID NO:23 (protein, listed as Homo sapiens)
# chain: B13 chain
# How the values were obtained:
# [1] = Mouse pharmacokinetics of FGF21 antibody conjugates; format: in vivo, Swiss-Webster mice; details: mice
# Method: The PK of FGF21 antibody conjugates were examined in mice after IV or SC administration. […] Antibody conjugates concentrations in serum were determined using an ELISA which captured the FGF21 portion of the antibody conjugates through a monoclonal anti-hFGF21 antibody bound to a 96-well plate. FGF21 antibody conjugates bound to the plate were detected through an anti-hFc monoclonal antibody, and concentrations were determined using a standard curve of the PK dosing solution diluted into serum-containing assay buffer. SC bioavailability was calculated as the ratio of the area-under the curve (AUC) of the SC serum concentration profile divided by the AUC of the IV serum concentration profile.
# [2] = biological target: Glut1 mRNA expression in differentiated 3T3-L1 adipocytes (Mus musculus, UniProt P16092+Q99N32); experiment: Glut1 Taqman assay; format: cell-based; details: for EC50: 6 hrs
# Method: Differentiated 3T3-L1 adipocytes were used to measure the Glut1 mRNA expression by qPCR method. Overnight serum starved day 10-14 differentiated 3T3-L1 adipocytes were treated with compounds for 6 hrs. Total RNA was extracted from these cells, and Glut1 and GAPDH mRNA expression was measured using a Quantitect Probe RT-PCR kit and running a quantitative real time PCR reaction in a Taqman machine (Applied Biosystems®). The bioactivity of the compounds was determined by a fold change in Glut1 mRNA levels normalized by the GAPDH mRNA levels from each sample. EC═values as measurements of the potency of the compounds were obtained from the dose response curves in the assay.
# 3T3-L1 adipocytes were seeded at day 8 in 24-well tissue culture plates (Falcon®, Cat#353047), and incubated in DMEM complete medium (10% FBS, 2 mM L-glutamine, 1% P/S) at 37° C., 5% CO2. […] The medium was aspirated, and then RNA extracted from the cells using the RNeasy mini Kit according to the manufacturer's instructions. RNA was measured at A260 nm using the Spectramax® Plus spectrophotometer.
# In Glut1 Taqman assay, differentiated 3T3-L1 adipocytes were used to measure the Glut1 mRNA expression by real-time quantitative PCR (qPCR) method described below. Overnight serum starved day 10-14 differentiated 3T3-L1 adipocytes were treated with compounds for 6 hrs. Total RNA was extracted from these cells, and Glut1 and GAPDH mRNA expression was measured using a Quantitect Probe RT-PCR kit and running a real time quantitative PCR reaction in a Taqman machine. The bioactivity of the compounds was determined by a fold change in Glut1 mRNA levels normalized by the GAPDH mRNA levels from each sample. In cAMP assay, Chinese hamster ovary (CHO) cells over-expressing human GLP-1R(CHO-hGLP-1R) were seeded in 96-well plates in serum-free medium with 300 uM IBMX. Cells were incubated with compounds at RT for 1 hr. The cAMP levels were measured using a CisBio cAMP Kit according to manufacturer's instructions. The bioactivity of the compounds was determined by the EC50 values obtained from the assay (see Table 42).
# [3] = Body weight and liver weight in ob/ob mice; format: in vivo; details: single SC dose 3 mg/kg; for Cumulative body weight change, mean body weight: FIG. 5A; for mean liver weight: FIG. 5B
# Method: (§1) The efficacy of FGF21 antibodies conjugates was evaluated in two murine obese insulin resistant models—ob/ob mice and high-fat diet-induced obese mice. For both models, male mice (6-8 weeks of age for ob/ob, 12-14 weeks of age for DIO with high-fat diet initiated at 6 weeks of age) were housed 2-4/cage and FGF21 antibody conjugates were administered by SC injection. Body weight was measured daily in the morning. Glucose tolerance was assessed by oral glucose tolerance test. Briefly, mice were fasted for 4-5 hrs in the morning of the day of testing. A basal blood sample was obtained and blood glucose levels were determined using a portable glucometer.
# ob/ob mice = experiment: Oral glucose tolerance test in ob/ob mice (FGF21 conjugates); format: in vivo; details: ob/ob mice; for Mean Glucose AUC (% of vehicle control) during OGTT: FIGS. 4A/4B, single SC dose 3 mg/kg
# Method: as §1
# [4] = biological target: differentiated 3T3-L1 adipocytes (Mus musculus, UniProt P16092+Q99N32); experiment: Glucose uptake assay; format: cell-based
# Method: Differentiated 3T3-L1 adipocytes were treated with compounds in the absence of serum for 24 hrs. Cells were then incubated with ^14C-2-deoxyglucose for 1 hr and glucose uptake into the cells was quantitated in Wallac 1450 MicroBeta (Trilux) instrument. Glucose uptake was expressed in counts per min (CPM). EC50 values as measurements of the potency of the compounds were obtained from the dose response curves in the assay.
# [5] = differentiated 3T3-L1 adipocytes, protein or antibody conjugate as labelled, read-out: Glut1 Taqman assay EC50
# [6] = 3T3-L1 adipocytes, 24 hrs, unconjugated protein
# differentiated 3T3-L1 adipocytes, sequence (P16092 22-822): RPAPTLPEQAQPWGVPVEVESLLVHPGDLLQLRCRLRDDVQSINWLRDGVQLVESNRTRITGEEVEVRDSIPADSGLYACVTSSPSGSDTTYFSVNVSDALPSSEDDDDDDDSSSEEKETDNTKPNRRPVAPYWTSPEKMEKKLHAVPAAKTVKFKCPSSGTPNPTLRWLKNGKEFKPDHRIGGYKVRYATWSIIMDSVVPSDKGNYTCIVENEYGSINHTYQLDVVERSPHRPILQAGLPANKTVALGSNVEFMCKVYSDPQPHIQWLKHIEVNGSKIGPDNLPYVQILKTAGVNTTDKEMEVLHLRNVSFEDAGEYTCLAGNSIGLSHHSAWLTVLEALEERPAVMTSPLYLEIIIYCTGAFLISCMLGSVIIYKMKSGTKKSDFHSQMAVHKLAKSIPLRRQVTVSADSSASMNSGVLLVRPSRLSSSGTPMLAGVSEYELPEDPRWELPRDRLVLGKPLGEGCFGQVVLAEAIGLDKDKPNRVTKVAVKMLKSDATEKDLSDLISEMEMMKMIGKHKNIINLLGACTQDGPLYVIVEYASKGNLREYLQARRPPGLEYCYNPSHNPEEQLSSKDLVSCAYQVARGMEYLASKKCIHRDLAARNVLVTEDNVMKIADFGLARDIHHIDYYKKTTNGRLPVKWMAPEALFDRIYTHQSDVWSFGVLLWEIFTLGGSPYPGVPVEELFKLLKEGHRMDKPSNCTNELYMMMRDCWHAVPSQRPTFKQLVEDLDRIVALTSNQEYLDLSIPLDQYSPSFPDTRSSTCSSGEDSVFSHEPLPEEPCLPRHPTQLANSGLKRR
# differentiated 3T3-L1 adipocytes, sequence (Q99N32 whole entry): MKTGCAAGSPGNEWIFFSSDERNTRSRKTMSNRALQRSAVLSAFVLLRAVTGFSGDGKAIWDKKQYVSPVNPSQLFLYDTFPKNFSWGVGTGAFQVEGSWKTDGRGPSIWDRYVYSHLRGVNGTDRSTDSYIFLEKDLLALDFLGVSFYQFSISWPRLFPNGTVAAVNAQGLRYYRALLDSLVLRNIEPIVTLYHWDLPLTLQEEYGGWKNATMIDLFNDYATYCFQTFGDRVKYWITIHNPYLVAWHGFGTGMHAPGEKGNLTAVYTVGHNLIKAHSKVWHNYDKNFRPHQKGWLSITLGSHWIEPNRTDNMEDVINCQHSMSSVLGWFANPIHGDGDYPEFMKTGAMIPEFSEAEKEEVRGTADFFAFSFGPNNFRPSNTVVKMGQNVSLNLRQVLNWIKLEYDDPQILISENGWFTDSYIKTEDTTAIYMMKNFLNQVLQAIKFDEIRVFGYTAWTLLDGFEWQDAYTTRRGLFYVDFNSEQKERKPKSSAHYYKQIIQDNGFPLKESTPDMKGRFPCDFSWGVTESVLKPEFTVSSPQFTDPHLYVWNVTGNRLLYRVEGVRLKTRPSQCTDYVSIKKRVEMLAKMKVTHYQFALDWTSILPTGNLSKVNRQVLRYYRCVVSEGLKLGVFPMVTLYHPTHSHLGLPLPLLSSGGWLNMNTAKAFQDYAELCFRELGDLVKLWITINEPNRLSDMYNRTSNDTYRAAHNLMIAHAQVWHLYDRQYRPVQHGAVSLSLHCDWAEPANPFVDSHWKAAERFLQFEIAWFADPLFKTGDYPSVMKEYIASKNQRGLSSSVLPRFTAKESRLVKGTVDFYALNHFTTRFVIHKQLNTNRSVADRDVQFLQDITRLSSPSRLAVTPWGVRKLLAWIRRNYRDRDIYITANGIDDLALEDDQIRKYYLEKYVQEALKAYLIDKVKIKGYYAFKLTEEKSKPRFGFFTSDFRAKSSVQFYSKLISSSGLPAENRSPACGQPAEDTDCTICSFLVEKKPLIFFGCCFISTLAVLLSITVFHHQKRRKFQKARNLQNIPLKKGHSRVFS
# Glut1 mRNA expression in differentiated 3T3-L1 adipocytes, sequence (P16092 22-822): as the sequence (P16092 22-822) above
# Glut1 mRNA expression in differentiated 3T3-L1 adipocytes, sequence (Q99N32 whole entry): as the sequence (Q99N32 whole entry) above
molecule,measurement,setting,value
B1,IV half-life,[1],13 h
same,EC50,[2]; [5],6.5 nM
same,"Cumulative body weight change, mean body weight",[3],2.7 g
same,mean liver weight,[3],2.4 g
same,Mean Glucose AUC (% of vehicle control) during OGTT,ob/ob mice,105 % of vehicle control
B2,EC50,"[4]; unconjugated protein (per Examples 18-21), n in parentheses",62 nM
B3,EC50,[2]; [5],0.6 nM
same,EC50,[4]; [6],0.9 nM
B4,IV half-life,[1],17 h
same,EC50,[2]; [5],16.6 nM
B5,EC50,[2]; [5],1.2 nM
B6,EC50,[2]; [5],1.2 nM
B7,EC50,[2]; [5],2.6 nM
same,EC50,[4]; [6],1.7 nM
B8,activity in Glut1 Taqman assay (in words),[2]; 3T3-L1 adipocytes,dose-dependent Glut1 induction
same,EC50,"[2]; 3T3-L1 adipocytes, serum-free DMEM 0.2% BSA, Taqman quantitative real-time PCR, read-out: Glut1 RNA expression EC50",16 nM
same,EC50,[2]; [5],1.4 nM
B9,EC50,[2]; [5],0.9 nM
same,EC50,[4]; [6],5.5 nM
B10,EC50,[2]; [5],> 500 nM
B11,EC50,[2]; [5],7.5 nM
B12,EC50,[2]; [5],1.3 nM
same,EC50,[4]; [6],5.2 nM
B13,"Cumulative body weight change, mean body weight",[3],2.6 g
same,mean liver weight,[3],2.4 g
same,Mean Glucose AUC (% of vehicle control) during OGTT,ob/ob mice,100 % of vehicle control
same,glucose tolerance in ob/ob mice (in words),ob/ob mice,compared poorly against Ab-FGF21ΔH-H125C
B14,IV half-life,[1],16 h
same,SC bioavailability,[1],51%
same,SC half-life,[1],11 h
same,EC50,[2]; [5],6.4 nM and 4.3 nM

# Source: US9163227B2, “Anti-diabetic compounds” (PFIZER INC., priority 2011, dated 2015)
